Test results reported in publication PMC2914788, “Phage-Derived Fully Human Monoclonal Antibody Fragments to Human Vascular Endothelial Growth Factor-C Block Its Interaction with VEGF Receptor-2 and 3” (PLoS ONE, 2010).

Biological target: T1, VC2.2.2 VH-myc (human)
T1 construct: as the VH of m13 (VC2.2.2), from Glu1 to Ser113; Chothia numbering; also called anti-VEGF-C VC2.2.2 VH; single VH-domain of VC2.2.2; source: E. coli (pHEN1), IPTG-induced, bacterial supernatant (ELISA); protein-A purified (SEC); not shown: myc, C-terminal, kept
Assay: ELISA; bacterial supernatant of IPTG-induced cultures expressing VH-myc on ΔNΔC-VEGF-C or alpha-2-macroglobulin; detection with anti-myc and anti-mouse HRP or with protein-A-HRP
Conditions: one partner purified

B1: ΔNΔC-VEGF-C (variant not stated for the experiment) (ligand, human, UniProt P49767 112-227, looked up)
chain: AHYNTEILKSIDNEWRKTQCMPREVCIDVGKEFGVATNTFFKPPCVSVYRCGGCCNSEGLQCMNTSTSYLSKTLFEITVPLSQGPKPVTISFANHTSCRCMSKLDVYRQVHSIIRR
notes: fully processed ΔNΔC form of human VEGF-C; also called fully processed human VEGF-C
  binding result: binds
